This note sets out measurements from patent US20230265151A1, “GIP/GLP1 CO-AGONIST COMPOUNDS” (priority 2020, published 2023).

The chains are these.
T1: human GIP receptor (human) (UniProt P48546)
T1 sequence (looked up): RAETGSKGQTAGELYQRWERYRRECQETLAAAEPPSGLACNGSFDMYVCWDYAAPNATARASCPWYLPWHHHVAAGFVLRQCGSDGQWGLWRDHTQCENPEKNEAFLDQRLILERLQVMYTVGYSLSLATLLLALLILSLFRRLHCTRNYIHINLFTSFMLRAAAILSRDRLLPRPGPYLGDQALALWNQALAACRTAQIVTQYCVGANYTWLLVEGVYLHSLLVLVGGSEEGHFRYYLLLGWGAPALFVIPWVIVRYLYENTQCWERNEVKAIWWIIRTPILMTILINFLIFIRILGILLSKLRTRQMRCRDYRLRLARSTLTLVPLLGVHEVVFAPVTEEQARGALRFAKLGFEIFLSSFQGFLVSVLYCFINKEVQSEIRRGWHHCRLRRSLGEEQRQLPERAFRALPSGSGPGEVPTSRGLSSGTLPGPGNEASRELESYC

T2: human GIP receptor (human, UniProt P48546 22-466)
T2 sequence (looked up): T1 sequence (looked up)

B1: Example 357 (peptide)
peptide: YXEGTXTSDXXIXLDXKAQXKFIXXLIEGGPSSGAPPPS
modifications: Y-Aib-EGT-αMeF(2F)-TSD-4Pal-Aib-I-αMeL-LD-Orn-K((2-[2-(2-Amino-ethoxy)-ethoxy]-acetyl)2-(γ-Glu)-CO-(CH2)12-CO2H)AQ-Aib-K((2-[2-(2-Amino-ethoxy)-ethoxy]-acetyl)2-(γ-Glu)-CO-(CH2)12-CO2H)FI-(D-Glu)-αMeY-LIEGGPSSGAPPPS-NH2
B2: Example 416 (peptide)
peptide: B1 peptide with K21X, E28K
modifications: Y-Aib-EGT-αMeF(2F)-TSD-4Pal-Aib-I-αMeL-LD-Orn-K((2-[2-(2-Amino-ethoxy)-ethoxy]-acetyl)2-(γ-Glu)-CO-(CH2)10-CH3)AQ-Aib-4Pal-FI-(D-Glu)-αMeY-LIK((2-[2-(2-Amino-ethoxy)-ethoxy]-acetyl)2-(γ-Glu)-CO-(CH2)10-CH3)GGPSSGAPPPS-NH2
B3: Example 425 (peptide)
peptide: B1 peptide with X10K, K21E
modifications: Y-Aib-EGT-αMeF(2F)-TSDK((2-[2-(2-Amino-ethoxy)-ethoxy]-acetyl)-(γ-Glu)-CO-(CH2)10-CH3)-Aib-I-αMeL-LD-Orn-K((2-[2-(2-Amino-ethoxy)-ethoxy]-acetyl)-(γ-Glu)-CO-(CH2)10-CH3)AQ-Aib-EFI-(D-Glu)-αMeY-LIEGGPSSGAPPPS-NH2
B4: Example 353 (peptide)
peptide: Y[Aib]EGT[αMePhe(2-F)]TSDV[Aib]I[αMeL]LD[Orn]K([AEEA-AEEA-γGlu-Decanoyl(10-(4-HOOC-PhO))])AQ[Aib][Om]FI[dE][αMeY]LIK([AEEA-AEEA-γGlu-Decanoyl(10-(4-HOOC-PhO))])GGPSSGAPPPS-NH2
modifications: reading uncertain; also: printed as Y-Aib-EGT-αMeF(2F)-TSDV-Aib-I-αMeL-LD-Orn-K((2-[2-(2-Amino-ethoxy)-ethoxy]-acetyl)2-(γ-Glu)-(10-(4-carboxyphenoxy)decanoyl))AQ-Aib-Om-FI-(D-Glu)-αMeY-LIK((2-[2-(2-Amino-ethoxy)-ethoxy]-acetyl)2-(γ-Glu)-(10-(4-carboxyphenoxy)decanoyl))GGPSSGAPPPS-NH2
B5: Example 474 (peptide)
peptide: B1 peptide with K17Q, K21X, X24K, E28K
modifications: Y-Aib-EGT-αMeF(2F)-TSD-4Pal-Aib-I-αMeL-LD-Orn-QAQ-Aib-Orn-FIK((2-[2-(2-Amino-ethoxy)-ethoxy]-acetyl)2-(γ-Glu)2-CO-(CH2)12-CO2H)-αMeY-LIK((2-[2-(2-Amino-ethoxy)-ethoxy]-acetyl)2-(γ-Glu)2-CO-(CH2)12-CO2H)GGPSSGAPPPS-NH2
B6: Example 487 (peptide)
peptide: B1 peptide with K17Q, K21X, X24K, E28K
modifications: Y-Aib-EGT-αMeF(2F)-TSD-4Pal-Aib-I-αMeL-LD-Orn-QAQ-Aib-Orn-FIK((2-[2-(2-Amino-ethoxy)-ethoxy]-acetyl)-(γ-Glu)3-(10-(4-carboxyphenoxy)decanoyl))-αMeY-LIK((2-[2-(2-Amino-ethoxy)-ethoxy]-acetyl)-(γ-Glu)3--(10-(4-carboxyphenoxy)decanoyl))GGPSSGAPPPS-NH2
B7: Example 472 (peptide)
peptide: B1 peptide with K17Q, K21X, X24K, E28K
modifications: Y-Aib-EGT-αMeF(2F)-TSD-4Pal-Aib-I-αMeL-LD-Orn-QAQ-Aib-Orn-FIK((2-[2-(2-Amino-ethoxy)-ethoxy]-acetyl)-Trx-(γ-Glu)-CO-(CH2)12-CO2H)-αMeY-LIK(((2-[2-(2-Amino-ethoxy)-ethoxy]-acetyl)-Trx-(γ-Glu)-CO-(CH2)12-CO2H)GGPSSGAPPPS-NH2)
B8: Example 482 (peptide)
peptide: B1 peptide with K17Q, K21X, X24K, E28K
modifications: Y-Aib-EGT-αMeF(2F)-TSD-4Pal-Aib-I-αMeL-LD-Orn-QAQ-Aib-Orn-FIK((γ-Glu)-(2-[2-(2-Amino-ethoxy)-ethoxy]-acetyl)2-(γ-Glu)-CO-(CH2)12-CO2H)-αMeY-LIK((γ-Glu)-(2-[2-(2-Amino-ethoxy)-ethoxy]-acetyl)2-(γ-Glu)-CO-(CH2)12-CO2H)GGPSSGAPPPS-NH2
B9: Example 477 (peptide)
peptide: B1 peptide with K17Q, K21X, X24K, E28K
modifications: Y-Aib-EGT-αMeF(2F)-TSD-4Pal-Aib-I-αMeL-LD-Orn-QAQ-Aib-Orn-FIK((2-[2-(2-Amino-ethoxy)-ethoxy]-acetyl)3-(γ-Glu)--(10-(4-carboxyphenoxy)decanoyl))-αMeY-LIK((2-[2-(2-Amino-ethoxy)-ethoxy]-acetyl)3-(γ-Glu)--(10-(4-carboxyphenoxy)decanoyl))GGPSSGAPPPS-NH2
B10: Example 483 (peptide)
peptide: B1 peptide with K17Q, K21X, X24K, E28K
modifications: Y-Aib-EGT-αMeF(2F)-TSD-4Pal-Aib-I-αMeL-LD-Orn-QAQ-Aib-Orn-FIK((γ-Glu)-(2-[2-(2-Amino-ethoxy)-ethoxy]-acetyl)2-(γ-Glu)-(10-(4-carboxyphenoxy)decanoyl))-αMeY-LIK((γ-Glu)-(2-[2-(2-Amino-ethoxy)-ethoxy]-acetyl)2-(γ-Glu)-(10-(4-carboxyphenoxy)decanoyl))GGPSSGAPPPS-NH2
B11: Example 486 (peptide)
peptide: B1 peptide with K17Q, K21X, X24K, E28K
modifications: Y-Aib-EGT-αMeF(2F)-TSD-4Pal-Aib-I-αMeL-LD-Orn-QAQ-Aib-Orn-FIK((2-[2-(2-Amino-ethoxy)-ethoxy]-acetyl)-(γ-Glu)3-CO-(CH2)12-CO2H)-αMeY-LIK((2-[2-(2-Amino-ethoxy)-ethoxy]-acetyl)-(γ-Glu)3-CO-(CH2)12-CO2H)GGPSSGAPPPS-NH2
B12: Example 485 (peptide)
peptide: B1 peptide with K17Q, K21X, X24K, E28K
modifications: Y-Aib-EGT-αMeF(2F)-TSD-4Pal-Aib-I-αMeL-LD-Orn-QAQ-Aib-Orn-FIK((2-[2-(2-Amino-ethoxy)-ethoxy]-acetyl)-(γ-Glu)-(2-[2-(2-Amino-ethoxy)-ethoxy]-acetyl)-(γ-Glu)-(10-(4-carboxyphenoxy)decanoyl))-αMeY-LIK((2-[2-(2-Amino-ethoxy)-ethoxy]-acetyl)-(γ-Glu)-(2-[2-(2-Amino-ethoxy)-ethoxy]-acetyl)-(γ-Glu)-(10-(4-carboxyphenoxy)decanoyl))GGPSSGAPPPS-NH2

Where a chain is given by its changes, count along the chain named. *1 amine or outer side, *2 acyl side, *3 side chain or, on linkers, in order; H or OH if unused. Where no end group is shown, it is not given here. Side-chain parts run from the residue outwards. [ ]: non-standard residue; d: D form. The star is where a group is joined. Decanoyl(10-(4-HOOC-PhO)) = O=C(O)c1ccc(OCCCCCCCCCC(=O)*)cc1; αMePhe(2-F) = C[C@](N)(Cc1ccccc1F)C(=O)O; γGlu = O=C(O)[C@H](CCC(=O)[*:2])N[*:1]; αMeY = C[C@](N)(Cc1ccc(O)cc1)C(=O)O; αMeL = CC(C)C[C@](C)(N)C(=O)O; Orn = NCCC[C@H](N)C(=O)O; AEEA = NCCOCCOCC(=O)O; Om = not defined here; Aib = CC(C)(N)C(=O)O Where only a bound is given, the exact number is not on record here.

The first experiment deals with T1, human GIP receptor (human). Kind of experiment: cell-based or functional assay.
Take B1: the cAMP EC50 turned out to be 0.011 nM and the cAMP Emax worked out at 99.9%.

In turn, B2 yielded a cAMP EC50 of 0.0214 nM and a cAMP Emax of 99%.

The molecule B3 had a cAMP EC50 of 0.00943 nM and a cAMP Emax of 97.6%.

Molecule B4 yielded a cAMP EC50 of 0.0249 nM and a cAMP Emax of 98.2%.

The target of a further experiment is human glucagon receptor (human) (UniProt P47871). The experiment can be described thus: cell-based or functional assay.
B1 returned a cAMP EC50 greater than 10100 nM.

B2 came in with a cAMP EC50 greater than 9950 nM.

For the molecule B3, the cAMP EC50 was greater than 9950 nM.

B4 yielded a cAMP EC50 greater than 9950 nM.

For another experiment, the target named is hGLP-1R (Homo sapiens, UniProt P43220). Kind of experiment: cell-based or functional assay.
Molecule B1 showed a cAMP EC50 of 0.649 nM and a cAMP Emax of 107%.

Regarding B2, the cAMP EC50 was 0.332 nM and the cAMP Emax worked out at 104%.

The molecule B3 registered a cAMP EC50 of 0.0965 nM and a cAMP Emax of 108%.

Molecule B4 came in with a cAMP EC50 of 0.203 nM and a cAMP Emax of 98%.

In the next experiment the target is human glucagon receptor (human, UniProt P47871 26-477). The experiment can be described thus: cell-based or functional assay.
human glucagon receptor, sequence (P47871 26-477): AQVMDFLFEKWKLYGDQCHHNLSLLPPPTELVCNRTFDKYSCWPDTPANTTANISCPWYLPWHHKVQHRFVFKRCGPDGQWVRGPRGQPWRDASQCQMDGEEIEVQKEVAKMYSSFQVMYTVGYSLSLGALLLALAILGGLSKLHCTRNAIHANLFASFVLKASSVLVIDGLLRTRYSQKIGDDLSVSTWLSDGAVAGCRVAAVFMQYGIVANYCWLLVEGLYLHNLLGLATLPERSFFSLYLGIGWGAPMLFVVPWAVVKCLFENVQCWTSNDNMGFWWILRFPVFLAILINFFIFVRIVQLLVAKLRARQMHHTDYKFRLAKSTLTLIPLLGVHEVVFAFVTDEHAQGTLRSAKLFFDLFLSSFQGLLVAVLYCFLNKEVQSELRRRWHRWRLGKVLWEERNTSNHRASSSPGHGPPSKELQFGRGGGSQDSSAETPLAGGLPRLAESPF
With B1, the “cAMP EC50 (1.0% HSA)” value is greater than 9950 nM.

Consider B5, for which the “cAMP EC50 (1.0% HSA)” value is greater than 9950 nM.

With B6, the “cAMP EC50 (1.0% HSA)” value is greater than 9950 nM.

Take B7: the “cAMP EC50 (1.0% HSA)” value is greater than 9950 nM.

B2: the “cAMP EC50 (1.0% HSA)” value is greater than 9950 nM.

On to B8, for which the “cAMP EC50 (1.0% HSA)” value is greater than 9950 nM.

Turning to B9, the “cAMP EC50 (1.0% HSA)” value was greater than 9950 nM.

B10: the “cAMP EC50 (1.0% HSA)” value is greater than 9950 nM.

Consider B11, for which the “cAMP EC50 (1.0% HSA)” value was greater than 9950 nM.

Regarding B12, the “cAMP EC50 (1.0% HSA)” value was greater than 9950 nM.

Take B3: the “cAMP EC50 (1.0% HSA)” value is greater than 9950 nM.

Take B4: the “cAMP EC50 (1.0% HSA)” value was greater than 9950 nM.

A further experiment has as its target T2, human GIP receptor. The experiment can be described thus: cell-based or functional assay.
Regarding B1, the “cAMP EC50 (1.0% HSA)” value amounted to 1.19 nM.

Take B5: the “cAMP EC50 (1.0% HSA)” value was determined as 0.156 nM.

On to B6, for which the “cAMP EC50 (1.0% HSA)” value worked out at 0.429 nM.

Regarding B7, the “cAMP EC50 (1.0% HSA)” value stood at 0.663 nM and the “cAMP Emax (1.0% HSA)” value was 76.3%.

Take B2: the “cAMP EC50 (1.0% HSA)” value turned out to be 0.723 nM and the “cAMP Emax (1.0% HSA)” value is 83%.

For B8, the “cAMP EC50 (1.0% HSA)” value was determined as 0.89 nM.

For the molecule B9, the “cAMP EC50 (1.0% HSA)” value is 0.163 nM.

Turning to B10, the “cAMP EC50 (1.0% HSA)” value turned out to be 0.297 nM.

For B11, the “cAMP EC50 (1.0% HSA)” value was determined as 0.239 nM.

In the case of B12, the “cAMP EC50 (1.0% HSA)” value was 0.536 nM.

Turning to B3, the “cAMP EC50 (1.0% HSA)” value turned out to be 0.875 nM and the “cAMP Emax (1.0% HSA)” value was found to be 89.9%.

Regarding B4, the “cAMP EC50 (1.0% HSA)” value worked out at 5.35 nM and the “cAMP Emax (1.0% HSA)” value was determined as 84.8%.

A further experiment has as its target human GLP-1 receptor (human, UniProt P43220 24-463). Kind of experiment: cell-based or functional assay.
Regarding B1, the “cAMP EC50 (1.0% HSA)” value stood at 36.2 nM and the “cAMP Emax (1.0% HSA)” value was 92.8%.

For B5, the “cAMP EC50 (1.0% HSA)” value stood at 1.1 nM.

As to B6, the “cAMP EC50 (1.0% HSA)” value was 3.16 nM.

Take B7: the “cAMP EC50 (1.0% HSA)” value was found to be 7.41 nM.

In the case of B8, the “cAMP EC50 (1.0% HSA)” value turned out to be 4.85 nM.

As for B9, the “cAMP EC50 (1.0% HSA)” value is 1.56 nM.

Take B10: the “cAMP EC50 (1.0% HSA)” value turned out to be 3.33 nM.

With B11, the “cAMP EC50 (1.0% HSA)” value turned out to be 2 nM.

For the molecule B12, the “cAMP EC50 (1.0% HSA)” value was determined as 3.9 nM.

Turning to B4, the “cAMP EC50 (1.0% HSA)” value turned out to be 7.12 nM and the “cAMP Emax (1.0% HSA)” value came to 92.5%.
